Results as given in patent US20260258394A1, “PLANT ENZYMES WITH IMPROVED ACTIVITY” (MAX-PLANCK-GESELLSCHAFT ZUR FÖRDERUNG DER WISSENSCHAFTEN …, priority 2023, published 2026).
Numbering of substitutions follows the chain as printed. Names and notes keep the numbering of the source.

Assays:
[1] = test system: Glycolyl-CoA Carboxylase GCC M5 (Methylorubrum extorquens propionyl-CoA carboxylase variant L100S, Y143H, D407I, I450V, W502R; β-subunit SEQ ID NO: 1 …); details: cited from earlier work
[2] = target: T1, Glycolyl-CoA Carboxylase GCC M5 variant G20R (Methylorubrum extorquens propionyl-CoA carboxylase variant G20R, L100S, Y143H, D407I, I450V, W502R); β-subunit SEQ (Methylorubrum extorquens, UniProt C5AP75, D407I/G20R/I450V/L100S/W502R/Y143H); test: Kinetic characterization of GCC M5 G20R (Vmax, kcat, App. KM) using LC-MS assays; type: biochemical
T1 construct: overexpressed in E. coli BL21-birA with M. extorquens biotin ligase
T1 sequence (C5AP75 1-510 G20R/L100S/Y143H/D407I/I450V/W502R): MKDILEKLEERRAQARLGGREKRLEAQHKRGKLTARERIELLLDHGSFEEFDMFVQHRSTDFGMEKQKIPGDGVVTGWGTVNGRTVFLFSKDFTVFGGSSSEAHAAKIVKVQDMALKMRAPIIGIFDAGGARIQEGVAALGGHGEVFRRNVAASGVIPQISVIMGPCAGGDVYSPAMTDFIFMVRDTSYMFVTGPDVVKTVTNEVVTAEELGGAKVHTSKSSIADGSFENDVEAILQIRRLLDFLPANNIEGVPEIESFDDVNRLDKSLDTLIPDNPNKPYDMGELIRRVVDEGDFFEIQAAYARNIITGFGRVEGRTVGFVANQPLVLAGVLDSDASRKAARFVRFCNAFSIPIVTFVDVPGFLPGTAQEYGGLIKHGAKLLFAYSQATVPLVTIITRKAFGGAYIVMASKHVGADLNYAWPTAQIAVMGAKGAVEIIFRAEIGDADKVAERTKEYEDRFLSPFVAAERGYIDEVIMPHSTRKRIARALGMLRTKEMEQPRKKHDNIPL
T1 sequence (C5AWU5 1-667 partner): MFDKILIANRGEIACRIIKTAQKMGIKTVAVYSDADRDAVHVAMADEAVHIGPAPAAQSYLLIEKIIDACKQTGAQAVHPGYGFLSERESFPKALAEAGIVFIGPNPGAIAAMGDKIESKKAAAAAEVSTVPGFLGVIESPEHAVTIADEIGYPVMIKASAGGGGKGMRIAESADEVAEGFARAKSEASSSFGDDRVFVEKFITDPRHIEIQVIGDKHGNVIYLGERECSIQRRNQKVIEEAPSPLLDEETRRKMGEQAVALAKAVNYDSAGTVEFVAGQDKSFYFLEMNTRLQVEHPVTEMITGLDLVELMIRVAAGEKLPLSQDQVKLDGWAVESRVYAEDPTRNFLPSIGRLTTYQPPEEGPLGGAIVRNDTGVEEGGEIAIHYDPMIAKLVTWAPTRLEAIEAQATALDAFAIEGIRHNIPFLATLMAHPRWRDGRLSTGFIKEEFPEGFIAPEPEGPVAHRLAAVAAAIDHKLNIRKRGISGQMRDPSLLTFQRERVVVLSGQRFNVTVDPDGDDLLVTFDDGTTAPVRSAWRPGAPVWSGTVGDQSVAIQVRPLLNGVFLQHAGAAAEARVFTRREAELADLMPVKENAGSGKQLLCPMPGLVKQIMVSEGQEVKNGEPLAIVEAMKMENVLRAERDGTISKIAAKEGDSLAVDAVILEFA
From the text: The carboxylation activity can be measured as catalytic rate of carboxylation of glycolyl-CoA (conversion of glycolyl-CoA into tartronyl-CoA) (Scheffen, loc. cit.). Catalytic rate (kcat) is here defined as the maximum formation rate of tartronyl-CoA out of glycolyl-CoA and HCO3^−. It describes how many mol of the substrate are converted per time and per mol of enzyme. It can only be approximated as it requires 100% substrate saturation of the active sites. Therefore, turnover rates at different initial substrate concentrations can be measured to compute the catalytic rate with the Michaelis-Menten equation.

[3] = substrate: CC(=O)SCCNC(=O)CCNC(=O)[C@H](O)C(C)(C)COP(=O)(O)OP(=O)(O)OC[C@H]1O[C@@H](n2cnc3c(N)ncnc32)[C@H](O)[C@@H]1OP(=O)(O)O; test: as above; type: biochemical, Methylorubrum extorquens; details: other: G20R; means±s.d., n=18, nonlinear regression
From the text: (§1) The data represent means±s.d., as determined from n=18 independent measurements using nonlinear regression.

[4] = substrate: CC(C)(COP(=O)(O)OP(=O)(O)OC[C@H]1O[C@@H](n2cnc3c(N)ncnc32)[C@H](O)[C@@H]1OP(=O)(O)O)[C@@H](O)C(=O)NCCC(=O)NCCSC(=O)CO; test: as above; type: biochemical, Methylorubrum extorquens; details: other: G20R; means±s.d., n=18, nonlinear regression
From the text: as §1

[5] = substrate: CC(=O)SCCNC(=O)CCNC(=O)[C@H](O)C(C)(C)COP(=O)(O)OP(=O)(O)OC[C@H]1O[C@@H](n2cnc3c(N)ncnc32)[C@H](O)[C@@H]1OP(=O)(O)O; test: Kinetic characterization of GCC M5 S100N (Vmax, kcat, App. KM) using LC-MS assays; type: biochemical, Methylorubrum extorquens; details: other: S100N; means±s.d., n=18, nonlinear regression
From the text: as §1

[6] = substrate: CC(C)(COP(=O)(O)OP(=O)(O)OC[C@H]1O[C@@H](n2cnc3c(N)ncnc32)[C@H](O)[C@@H]1OP(=O)(O)O)[C@@H](O)C(=O)NCCC(=O)NCCSC(=O)CO; test: as above; type: biochemical, Methylorubrum extorquens; details: other: S100N; means±s.d., n=18, nonlinear regression
From the text: as §1

[7] = target: T2, GCC M5_G20R (M. extorquens) β-subunit G20R, L100S, Y143H, D407I, I450V, W502R mutations
T2 chain: T1 sequence (C5AP75 1-510 G20R/L100S/Y143H/D407I/I450V/W502R)

[8] = means±s.d., reference Scheffen loc. cit.

## CC(C)(COP(=O)(O)OP(=O)(O)OC[C@H]1O[C@@H](n2cnc3c(N)ncnc32)[C@H](O)[C@@H]1OP(=O)(O)O)[C@@H](O)C(=O)NCCC(=O)NCCSC(=O)CO [Glycolyl-CoA, glycolyl-CoA]
[1]; Scheffen, Nat. Catal. 4, 105-115, 2021
  catalytic rate of carboxylation of glycolyl-CoA: 5.6 ± 0.3 s⁻¹
[1]; means±s.d., reference Scheffen loc. cit., read-out: App. KM
  Km: 150 ± 30 µM
[1]; [8]
  Vmax: 2590 ± 130 nmol/min/mg
  kcat: 5.6 ± 0.3 s⁻¹
[1]; reference Scheffen loc. cit.
  kcat/KM: 36300 M⁻¹ s⁻¹
[2]; G20R versus GCC M5
  Vmax, fold higher than GCC M5: 1.8 -fold
[2]; G20R versus GCC M5, result in words
  apparent KM value for glycolyl-CoA (change versus GCC M5): slightly increased
[2]; G20R, unit not given
  kcat: 9.8±0.2

B1: Glycolyl-CoA Carboxylase GCC M5 variant G20R (Methylorubrum extorquens propionyl-CoA carboxylase variant G20R, L100S, Y143H, D407I, I450V, W502R; β-subunit SEQ … (protein)
chain: T1 sequence (C5AP75 1-510 G20R/L100S/Y143H/D407I/I450V/W502R)
notes: overexpressed in E. coli BL21-birA with M. extorquens biotin ligase
[3]
  Km: 380 ± 100 µM
  Vmax: 2.25 µmol/min/mg
  kcat: 4.9 ± 0.4 s⁻¹
  kcat/Km: 13000 M⁻¹ s⁻¹
[4]
  Km: 270 ± 20 µM
  Vmax: 4.52 µmol/min/mg
  kcat: 9.8 ± 0.2 s⁻¹
  kcat/Km: 36400 M⁻¹ s⁻¹

B2: Glycolyl-CoA Carboxylase GCC M5 variant S100N (= L100N; Methylorubrum extorquens propionyl-CoA carboxylase variant L100N, Y143H, D407I, I450V, W502R; β-subunit … (protein)
chain: T1 sequence (C5AP75 1-510 G20R/L100S/Y143H/D407I/I450V/W502R) with R20G, S100N
notes: as for B1
[5]
  Km: 630 ± 100 µM
  Vmax: 0.174 µmol/min/mg
  kcat: 0.38 ± 0.03 s⁻¹
  kcat/Km: 596 M⁻¹ s⁻¹
[6]
  Km: 320 ± 50 µM
  Vmax: 0.79 µmol/min/mg
  kcat: 1.7 ± 0.1 s⁻¹
  kcat/Km: 5360 M⁻¹ s⁻¹

B3: PCC WT (M. extorquens) α-subunit (protein)
chain: T1 sequence (C5AWU5 1-667 partner)
[7]
  Specific activity (nmol min^-1 mg^-1) (nmol min^-1 mg^-1): 2600
  Vmax [nmol min^-1 mg^-1], glycolyl-CoA (nmol min^-1 mg^-1): 4520
  kcat [s^-1], glycolyl-CoA: 9.8 s⁻¹
